In publication PMC7031066:

Experiments:
PeWRKY1 [1] = molecular target: T1, PeWRKY1 (Populus euphratica, UniProt A0AAJ6U0E7 1-595); experiment: EMSA
PeWRKY1 [2] = molecular target: T1, PeWRKY1; experiment: competition
PeWRKY1 [3] = molecular target: T1, PeWRKY1; experiment: competition; remark: listed apart in the source

B1: PeHA1 promoter W-box probe (dsDNA)
DNA 1: CCCTATCGGGCAAGATTTGACCCGCCCGAGTTGATCCCTC
DNA 2: GAGGGATCAACTCGGGCGGGTCAAATCTTGCCCGATAGGG
B1: binds (PeWRKY1 [1]).

B2: W-box mutant probe (TTGACC to TTAGCC) (dsDNA)
DNA 1: CCCTATCGGGCAAGATTTAGCCCGCCCGAGTTGATCCCTC
DNA 2: GAGGGATCAACTCGGGCGGGCTAAATCTTGCCCGATAGGG
B2: no binding (PeWRKY1 [2]).

B3: PeHA1 promoter W-box unlabeled competitor (dsDNA)
DNA 1: CCCTATCGGGCAAGATTTGACCCGCCCGAGTTGATCCCTC
DNA 2: GAGGGATCAACTCGGGCGGGTCAAATCTTGCCCGATAGGG
B3: binds (PeWRKY1 [3]).
